Assay results reported in US20130078247A1.
pIC50: −log10 of the molar value. Like-named read-outs stand apart in the source and are kept apart here.

Legend:
human Ang2 (human) [1] = target: human Ang2 (human) (UniProt O15123); assay: competition ELISA hAng2/hTie2-Fc
human Ang2 (human) [2] = target: human Ang2 (human) (UniProt O15123); assay: competition ELISA hAng2/hTie2-Fc; remark: listed apart in the source
mouse Ang2 (mouse) [3] = target: mouse Ang2 (mouse) (UniProt O35608); assay: competition ELISA: mAng2 binding to mTie2
human Ang2 (human) [4] = target: human Ang2 (human) (UniProt O15123); assay: competition ELISA hAng2/hTie2-Fc, with 0.5 uM HSA [continued]
human Ang2 (human) [5] = target: human Ang2 (human) (UniProt O15123); assay: competition ELISA: hAng2 binding to hTie2
mouse Ang2 (mouse) [6] = target: mouse Ang2 (mouse) (UniProt O35608); assay: competition ELISA: mAng2 binding to mTie2; remark: listed apart in the source
mouse Ang2 (mouse) [7] = target: mouse Ang2 (mouse) (UniProt O35608); assay: competition ELISA: mAng2 binding to mTie2; remark: listed apart in the source
mouse Ang2 (mouse) [8] = target: mouse Ang2 (mouse) (UniProt O35608); assay: competition ELISA: mAng2 binding to mTie2; remark: listed apart in the source
human Ang2 (human) [9] = target: human Ang2 (human) (UniProt O15123); assay: competition ELISA hAng2/hTie2-Fc, with 0.5 uM HSA [continued]; remark: listed apart in the source
[10] = target: human DLL4, full length, overexpressed on CHO or HEK293 cells (human) (UniProt Q9NR61); assay: competition FMAT: labelled hNotch1-Fc on CHO-hDLL4 cells
[11] = target: mouse DLL4, full length, overexpressed on CHO or HEK293 cells (mouse) (UniProt Q9JI71); assay: competition FMAT: labelled hNotch1/Fc binding to CHO-mDLL4 cells; panel '+ HSA', HSA not marked for this curve [continued]
[12] = target: mouse DLL4, full length, overexpressed on CHO or HEK293 cells (mouse) (UniProt Q9JI71); assay: competition FMAT: labelled hNotch1-Fc on CHO-mDLL4 cells, with 25 uM HSA [continued]
[13] = target: mouse DLL4, full length, overexpressed on CHO or HEK293 cells (mouse) (UniProt Q9JI71); assay: competition FMAT: labelled hNotch1-Fc on CHO-mDLL4 cells
[14] = target: mouse DLL4, full length, overexpressed on CHO or HEK293 cells (mouse) (UniProt Q9JI71); assay: competition FMAT: labelled hNotch1/Fc binding to CHO-mDLL4 cells
[15] = target: human DLL4, full length, overexpressed on CHO or HEK293 cells (human) (UniProt Q9NR61); assay: competition FMAT: labelled hNotch1-Fc on CHO-hDLL4 cells, with 25 uM HSA [continued]
[16] = target: recombinant human DLL4 extracellular domain, C-terminally His-tagged (R&D Systems) (human) (UniProt Q9NR61); assay: hDLL4/hNotch1-Fc competition ELISA
[17] = target: recombinant human DLL4 extracellular domain, C-terminally His-tagged (R&D Systems) (human) (UniProt Q9NR61); assay: competition ELISA: 8 nM biotinylated hDLL4 binding to coated hNotch1/Fc
[18] = target: mouse DLL4, full length, overexpressed on CHO or HEK293 cells (mouse) (UniProt Q9JI71); assay: competition FMAT: labelled hNotch1/Fc binding to CHO-mDLL4 cells; remark: listed apart in the source
[19] = target: recombinant human DLL4 extracellular domain, C-terminally His-tagged (R&D Systems) (human) (UniProt Q9NR61); assay: competition ELISA: 8 nM biotinylated hDLL4 + binder, residual binding to coated hNotch1-Fc
[20] = target: human DLL4, full length, overexpressed on CHO or HEK293 cells (human) (UniProt Q9NR61); assay: competition FMAT: labelled hNotch1/Fc binding to CHO-hDLL4 cells; panel '+ HSA', HSA not marked for this curve [continued]
[21] = target: human DLL4, full length, overexpressed on CHO or HEK293 cells (human) (UniProt Q9NR61); assay: competition FMAT: labelled hNotch1-Fc on CHO-hDLL4 cells, with 25 uM HSA [continued]; remark: listed apart in the source
[22] = target: human DLL4, full length, overexpressed on CHO or HEK293 cells (human) (UniProt Q9NR61); assay: FMAT, Notch1/Fc on CHO-hDLL4
[23] = target: mouse DLL4, full length, overexpressed on CHO or HEK293 cells (mouse) (UniProt Q9JI71); assay: competition FMAT: labelled hNotch1/Fc binding to CHO-mDLL4 cells; panel '+ HSA', HSA not marked for this curve [continued]; remark: listed apart in the source
[24] = target: human DLL4, full length, overexpressed on CHO or HEK293 cells (human) (UniProt Q9NR61); assay: competition FMAT: labelled hNotch1-Fc on CHO-hDLL4 cells; remark: listed apart in the source
[25] = target: recombinant mouse DLL4 extracellular domain, C-terminally His-tagged (R&D Systems) (mouse) (UniProt Q9JI71); assay: binding ELISA on coated rmDLL4
[26] = target: recombinant human DLL4 extracellular domain, C-terminally His-tagged (R&D Systems) (human) (UniProt Q9NR61); assay: binding ELISA on coated rhDLL4
[27] = target: human DLL4, full length, overexpressed on CHO or HEK293 cells (human) (UniProt Q9NR61); assay: competition FMAT: labelled hNotch1/Fc binding to CHO-hDLL4 cells
[28] = target: recombinant human DLL4 extracellular domain, C-terminally His-tagged (R&D Systems) (human) (UniProt Q9NR61); assay: competition ELISA: 8 nM biotinylated hDLL4 + binder, residual binding to coated hNotch1-Fc; remark: listed apart in the source
[29] = target: recombinant human DLL4 extracellular domain, C-terminally His-tagged (R&D Systems) (human) (UniProt Q9NR61); assay: hDLL4/hNotch1 competition AlphaScreen
[30] = target: mouse DLL4, full length, overexpressed on CHO or HEK293 cells (mouse) (UniProt Q9JI71); assay: competition FMAT: labelled hNotch1-Fc on CHO-mDLL4 cells; remark: listed apart in the source
[31] = target: human DLL4, full length, overexpressed on CHO or HEK293 cells (human) (UniProt Q9NR61); assay: cell-based or functional assay
[32] = target: mouse DLL4, full length, overexpressed on CHO or HEK293 cells (mouse) (UniProt Q9JI71); assay: FMAT, Notch1/Fc on CHO-mDLL4
[33] = target: mouse DLL4, full length, overexpressed on CHO or HEK293 cells (mouse) (UniProt Q9JI71); assay: competition FMAT: labelled hNotch1-Fc on CHO-mDLL4 cells, with 25 uM HSA [continued]; remark: listed apart in the source

mouse Ang2 (mouse), sequence (O35608 19-496 limits assumed): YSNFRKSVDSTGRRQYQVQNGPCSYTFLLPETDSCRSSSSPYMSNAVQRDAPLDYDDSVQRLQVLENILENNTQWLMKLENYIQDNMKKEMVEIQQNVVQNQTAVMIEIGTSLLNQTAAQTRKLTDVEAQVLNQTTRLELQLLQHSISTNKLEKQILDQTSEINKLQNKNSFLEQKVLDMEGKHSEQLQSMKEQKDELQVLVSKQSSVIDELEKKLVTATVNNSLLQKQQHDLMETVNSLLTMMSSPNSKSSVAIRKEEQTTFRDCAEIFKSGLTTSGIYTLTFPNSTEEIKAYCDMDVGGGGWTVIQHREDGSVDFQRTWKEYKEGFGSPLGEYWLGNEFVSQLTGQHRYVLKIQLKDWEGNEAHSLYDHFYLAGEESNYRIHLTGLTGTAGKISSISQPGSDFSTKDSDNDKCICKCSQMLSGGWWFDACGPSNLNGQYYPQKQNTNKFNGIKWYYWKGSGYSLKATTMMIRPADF
human Ang2 (human), sequence (O15123 19-496 limits assumed): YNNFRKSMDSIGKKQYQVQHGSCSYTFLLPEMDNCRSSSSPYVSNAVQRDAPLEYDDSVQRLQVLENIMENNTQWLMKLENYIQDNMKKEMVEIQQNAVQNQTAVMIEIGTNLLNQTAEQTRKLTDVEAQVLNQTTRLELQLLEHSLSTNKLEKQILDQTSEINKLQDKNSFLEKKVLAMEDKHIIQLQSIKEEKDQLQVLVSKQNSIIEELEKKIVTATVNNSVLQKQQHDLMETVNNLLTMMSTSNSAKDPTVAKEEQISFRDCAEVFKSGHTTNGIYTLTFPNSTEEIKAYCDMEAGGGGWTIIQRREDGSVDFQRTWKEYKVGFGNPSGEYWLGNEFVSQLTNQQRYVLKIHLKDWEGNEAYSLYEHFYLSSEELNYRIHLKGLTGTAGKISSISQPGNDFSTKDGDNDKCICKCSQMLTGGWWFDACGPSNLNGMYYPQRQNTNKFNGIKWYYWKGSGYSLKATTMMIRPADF
mouse DLL4, full length, overexpressed on CHO or HEK293 cells (mouse), sequence (Q9JI71 27-686): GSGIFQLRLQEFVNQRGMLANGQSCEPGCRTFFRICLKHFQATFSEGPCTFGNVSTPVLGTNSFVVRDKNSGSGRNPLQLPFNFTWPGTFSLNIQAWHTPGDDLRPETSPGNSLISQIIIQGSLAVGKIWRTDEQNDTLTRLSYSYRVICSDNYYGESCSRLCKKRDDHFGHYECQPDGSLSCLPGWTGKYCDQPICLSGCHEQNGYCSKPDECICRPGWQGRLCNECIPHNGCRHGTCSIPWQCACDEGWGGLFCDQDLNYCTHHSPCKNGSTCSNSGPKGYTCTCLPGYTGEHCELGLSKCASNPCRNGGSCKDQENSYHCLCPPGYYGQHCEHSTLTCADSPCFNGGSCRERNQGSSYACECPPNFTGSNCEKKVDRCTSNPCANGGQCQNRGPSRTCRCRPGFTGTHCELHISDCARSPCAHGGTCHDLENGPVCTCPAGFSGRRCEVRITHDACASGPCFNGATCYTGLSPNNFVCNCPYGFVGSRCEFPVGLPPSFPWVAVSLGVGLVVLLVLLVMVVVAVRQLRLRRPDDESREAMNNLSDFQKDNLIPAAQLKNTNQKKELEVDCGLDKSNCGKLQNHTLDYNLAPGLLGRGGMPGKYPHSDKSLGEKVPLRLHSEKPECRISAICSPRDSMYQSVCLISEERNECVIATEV
recombinant mouse DLL4 extracellular domain, C-terminally His-tagged (R&D Systems) (mouse), sequence (Q9JI71 27-525 limits assumed): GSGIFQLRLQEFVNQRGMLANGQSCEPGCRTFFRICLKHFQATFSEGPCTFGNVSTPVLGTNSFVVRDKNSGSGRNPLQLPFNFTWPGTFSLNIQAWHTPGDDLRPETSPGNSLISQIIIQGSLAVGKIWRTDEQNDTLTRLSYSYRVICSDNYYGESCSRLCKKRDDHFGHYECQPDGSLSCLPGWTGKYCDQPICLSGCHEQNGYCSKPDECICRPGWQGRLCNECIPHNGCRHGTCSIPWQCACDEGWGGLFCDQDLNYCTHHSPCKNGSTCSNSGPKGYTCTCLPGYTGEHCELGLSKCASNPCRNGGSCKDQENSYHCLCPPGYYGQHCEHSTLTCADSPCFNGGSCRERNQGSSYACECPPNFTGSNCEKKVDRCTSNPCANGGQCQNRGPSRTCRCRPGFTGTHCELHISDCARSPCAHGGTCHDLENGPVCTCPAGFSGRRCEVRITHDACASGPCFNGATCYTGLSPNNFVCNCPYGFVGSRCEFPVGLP

In the case of AMG386, the IC50 (read off the curve) (human Ang2 (human) [1]) was 0.004 nM, the IC50 (read off the curve) (human Ang2 (human) [2]) was 0.005 nM and the IC50 (read off the curve) (mouse Ang2 (mouse) [3]) was 0.004 nM. The IC50 (read off the curve) (human Ang2 (human) [4]) was 0.005 nM, the IC50 (read off the curve) (human Ang2 (human) [5]) was 0.003 nM and the IC50 (read off the curve) (mouse Ang2 (mouse) [6]) was 0.009 nM. The IC50 (read off the curve) (mouse Ang2 (mouse) [7]) was 0.003 nM, the IC50 (read off the curve) (mouse Ang2 (mouse) [8]) was 0.007 nM and the IC50 (read off the curve) (human Ang2 (human) [9]) was 0.004 nM.

For “anti-DLL4 Fab fragment (Fab of the Genentech DII4 mAb of US 2008/0014196)”, the IC50 (read off the curve) [10] was 7 nM, the IC50 (read off the curve) [11] was 2 nM and the IC50 (read off the curve) [12] was 1 nM. The IC50 (read off the curve) [13] was 1 nM, the IC50 (read off the curve) [14] was 2 nM and the IC50 (read off the curve) [15] was 7 nM. It also gave a pIC50 [16] of 9.15, an IC50 (read off the curve) [17] of 3 nM and an IC50 (read off the curve) [18] of 3 nM. It also gave an IC50 (read off the curve) [19] of 5 nM, an IC50 (read off the curve) [20] of 3 nM and an IC50 (read off the curve) [21] of 4 nM. For the same substance, the pIC50 [22] was 8.27, the IC50 (read off the curve) [23] was 3 nM and the IC50 (read off the curve) [24] was 5 nM. For the same substance, the EC50 (read off the curve) [25] was 0.9 nM, the EC50 (read off the curve) [26] was 0.8 nM and the IC50 (read off the curve) [27] was 4 nM. For the same substance, the IC50 (read off the curve) [28] was 4 nM, the pIC50 [29] was 9.52 and the IC50 (read off the curve) [30] was 2 nM. For the same substance, the IC50, DLL4/Notch1 reporter assay (luciferase; co-culture with HEK293-hDII4) [31] was 133 nM, the pIC50 [32] was 8.64 and the IC50 (read off the curve) [33] was 2 nM.
